Starred links: 1 amine or outer side, 2 acyl side, 3 side chain; linkers in the order of their positions; H or OH if unused. Non-standard residues stand in square brackets, D forms with d. Groups on a side chain read outwards from the residue. *: point of attachment. C20 diacid = O=C(O)CCCCCCCCCCCCCCCCCCC(=O)*; γGlu = O=C(O)[C@H](CCC(=O)[*:2])N[*:1]; Palmitoyl = CCCCCCCCCCCCCCCC(=O)*; Aib = CC(C)(N)C(=O)O
T1: human GIP receptor (human, UniProt P48546 22-466)
T1 sequence (looked up): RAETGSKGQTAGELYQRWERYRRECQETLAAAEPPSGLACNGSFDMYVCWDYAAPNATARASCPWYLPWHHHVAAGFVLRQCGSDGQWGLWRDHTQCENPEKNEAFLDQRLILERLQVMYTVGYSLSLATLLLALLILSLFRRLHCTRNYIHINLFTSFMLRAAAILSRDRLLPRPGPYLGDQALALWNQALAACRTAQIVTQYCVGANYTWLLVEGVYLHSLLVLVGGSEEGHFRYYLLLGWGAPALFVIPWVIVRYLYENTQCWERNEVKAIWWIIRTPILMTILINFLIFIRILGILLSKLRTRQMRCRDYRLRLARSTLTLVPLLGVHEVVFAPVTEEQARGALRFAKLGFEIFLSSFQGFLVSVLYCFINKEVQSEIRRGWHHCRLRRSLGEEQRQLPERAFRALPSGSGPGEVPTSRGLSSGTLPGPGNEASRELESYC


Experiments:
Assay in all cases: cell-based or functional assay
human GIP receptor [1] = target: T1, human GIP receptor
human GIP receptor [2] = target: T1, human GIP receptor; remark: listed apart in the source
human GLP-1 receptor = human GLP-1 receptor (human, UniProt P43220 24-463)

| Binder | EC50 hGIP R (cAMP, HEK293 cells expressing the GIP R) (human GIP receptor [1]) [nM] | EC50, hGIP-R level of cAMP (HEK293 cells expressing human GIP R) (human GIP receptor [2]) [nM] | EC50 hGLP1 R (cAMP, HEK293 cells expressing the GLP-1R) (human GLP-1 receptor) [nM] |
| --- | --- | --- | --- |
| H-Y[Aib]EGTFISDYSIELDKK([γGlu-Palmitoyl])HQQDFVNWLLAQGPSSGAPPPS-NH2 (SMILES CCCCCCCCCCCCCCCC(=O)N[C@@H](CCC(=O)NCCCC[C@H](NC(=O)[C@H](CCCCN)NC(=O)[C@H](CC(=O)O)NC(=O)[C@H](CC(C)C)NC(=O)[C@H](CCC(=O)O)NC(=O)[C@@H](NC(=O)[C@H](CO)NC(=O)[C@H](Cc1ccc(O)cc1)NC(=O)[C@H](CC(=O)O)NC(=O)[C@H](CO)NC(=O)[C@@H](NC(=O)[C@H](Cc1ccccc1)NC(=O)[C@@H](NC(=O)CNC(=O)[C@H](CCC(=O)O)NC(=O)C(C)(C)NC(=O)[C@@H](N)Cc1ccc(O)cc1)[C@@H](C)O)[C@@H](C)CC)[C@@H](C)CC)C(=O)N[C@@H](Cc1c[nH]cn1)C(=O)N[C@@H](CCC(N)=O)C(=O)N[C@@H](CCC(N)=O)C(=O)N[C@@H](CC(=O)O)C(=O)N[C@@H](Cc1ccccc1)C(=O)N[C@H](C(=O)N[C@@H](CC(N)=O)C(=O)N[C@@H](Cc1c[nH]c2ccccc12)C(=O)N[C@@H](CC(C)C)C(=O)N[C@@H](CC(C)C)C(=O)N[C@@H](C)C(=O)N[C@@H](CCC(N)=O)C(=O)NCC(=O)N1CCC[C@H]1C(=O)N[C@@H](CO)C(=O)N[C@@H](CO)C(=O)NCC(=O)N[C@@H](C)C(=O)N1CCC[C@H]1C(=O)N1CCC[C@H]1C(=O)N1CCC[C@H]1C(=O)N[C@@H](CO)C(N)=O)C(C)C)C(=O)O) [Compound 1] | 0.003 | 0.008 | – |
| H-Y[Aib]EGTFISDYSIELEKK([γGlu-Palmitoyl])HQQDFVNWLLAQGPSSGAPPPS-NH2 (SMILES CCCCCCCCCCCCCCCC(=O)N[C@@H](CCC(=O)NCCCC[C@H](NC(=O)[C@H](CCCCN)NC(=O)[C@H](CCC(=O)O)NC(=O)[C@H](CC(C)C)NC(=O)[C@H](CCC(=O)O)NC(=O)[C@@H](NC(=O)[C@H](CO)NC(=O)[C@H](Cc1ccc(O)cc1)NC(=O)[C@H](CC(=O)O)NC(=O)[C@H](CO)NC(=O)[C@@H](NC(=O)[C@H](Cc1ccccc1)NC(=O)[C@@H](NC(=O)CNC(=O)[C@H](CCC(=O)O)NC(=O)C(C)(C)NC(=O)[C@@H](N)Cc1ccc(O)cc1)[C@@H](C)O)[C@@H](C)CC)[C@@H](C)CC)C(=O)N[C@@H](Cc1c[nH]cn1)C(=O)N[C@@H](CCC(N)=O)C(=O)N[C@@H](CCC(N)=O)C(=O)N[C@@H](CC(=O)O)C(=O)N[C@@H](Cc1ccccc1)C(=O)N[C@H](C(=O)N[C@@H](CC(N)=O)C(=O)N[C@@H](Cc1c[nH]c2ccccc12)C(=O)N[C@@H](CC(C)C)C(=O)N[C@@H](CC(C)C)C(=O)N[C@@H](C)C(=O)N[C@@H](CCC(N)=O)C(=O)NCC(=O)N1CCC[C@H]1C(=O)N[C@@H](CO)C(=O)N[C@@H](CO)C(=O)NCC(=O)N[C@@H](C)C(=O)N1CCC[C@H]1C(=O)N1CCC[C@H]1C(=O)N1CCC[C@H]1C(=O)N[C@@H](CO)C(N)=O)C(C)C)C(=O)O) [Compound 3] | 0.014 | 0.014 | – |
| H-Y[Aib]EGTFISDYSIELDK([γGlu-Palmitoyl])IHQQDFVNWLLAQGPSSGAPPPS-NH2 (SMILES CCCCCCCCCCCCCCCC(=O)N[C@@H](CCC(=O)NCCCC[C@H](NC(=O)[C@H](CC(=O)O)NC(=O)[C@H](CC(C)C)NC(=O)[C@H](CCC(=O)O)NC(=O)[C@@H](NC(=O)[C@H](CO)NC(=O)[C@H](Cc1ccc(O)cc1)NC(=O)[C@H](CC(=O)O)NC(=O)[C@H](CO)NC(=O)[C@@H](NC(=O)[C@H](Cc1ccccc1)NC(=O)[C@@H](NC(=O)CNC(=O)[C@H](CCC(=O)O)NC(=O)C(C)(C)NC(=O)[C@@H](N)Cc1ccc(O)cc1)[C@@H](C)O)[C@@H](C)CC)[C@@H](C)CC)C(=O)N[C@H](C(=O)N[C@@H](Cc1c[nH]cn1)C(=O)N[C@@H](CCC(N)=O)C(=O)N[C@@H](CCC(N)=O)C(=O)N[C@@H](CC(=O)O)C(=O)N[C@@H](Cc1ccccc1)C(=O)N[C@H](C(=O)N[C@@H](CC(N)=O)C(=O)N[C@@H](Cc1c[nH]c2ccccc12)C(=O)N[C@@H](CC(C)C)C(=O)N[C@@H](CC(C)C)C(=O)N[C@@H](C)C(=O)N[C@@H](CCC(N)=O)C(=O)NCC(=O)N1CCC[C@H]1C(=O)N[C@@H](CO)C(=O)N[C@@H](CO)C(=O)NCC(=O)N[C@@H](C)C(=O)N1CCC[C@H]1C(=O)N1CCC[C@H]1C(=O)N1CCC[C@H]1C(=O)N[C@@H](CO)C(N)=O)C(C)C)[C@@H](C)CC)C(=O)O) [Compound 2] | 0.008 | 0.013 | – |
| H-Y[Aib]EGTFISDYSIELDKIHQQDFVNWLLAQGPSSGAPPPSK([γGlu-Palmitoyl])-NH2 (SMILES CCCCCCCCCCCCCCCC(=O)N[C@@H](CCC(=O)NCCCC[C@H](NC(=O)[C@H](CO)NC(=O)[C@@H]1CCCN1C(=O)[C@@H]1CCCN1C(=O)[C@@H]1CCCN1C(=O)[C@H](C)NC(=O)CNC(=O)[C@H](CO)NC(=O)[C@H](CO)NC(=O)[C@@H]1CCCN1C(=O)CNC(=O)[C@H](CCC(N)=O)NC(=O)[C@H](C)NC(=O)[C@H](CC(C)C)NC(=O)[C@H](CC(C)C)NC(=O)[C@H](Cc1c[nH]c2ccccc12)NC(=O)[C@H](CC(N)=O)NC(=O)[C@@H](NC(=O)[C@H](Cc1ccccc1)NC(=O)[C@H](CC(=O)O)NC(=O)[C@H](CCC(N)=O)NC(=O)[C@H](CCC(N)=O)NC(=O)[C@H](Cc1c[nH]cn1)NC(=O)[C@@H](NC(=O)[C@H](CCCCN)NC(=O)[C@H](CC(=O)O)NC(=O)[C@H](CC(C)C)NC(=O)[C@H](CCC(=O)O)NC(=O)[C@@H](NC(=O)[C@H](CO)NC(=O)[C@H](Cc1ccc(O)cc1)NC(=O)[C@H](CC(=O)O)NC(=O)[C@H](CO)NC(=O)[C@@H](NC(=O)[C@H](Cc1ccccc1)NC(=O)[C@@H](NC(=O)CNC(=O)[C@H](CCC(=O)O)NC(=O)C(C)(C)NC(=O)[C@@H](N)Cc1ccc(O)cc1)[C@@H](C)O)[C@@H](C)CC)[C@@H](C)CC)[C@@H](C)CC)C(C)C)C(N)=O)C(=O)O) [Compound 5] | 0.014 | 0.014 | – |
| H-Y[Aib]EGTFISDYSIELDKIHQQDFVNWLLAQK([γGlu-Palmitoyl])-NH2 (SMILES CCCCCCCCCCCCCCCC(=O)N[C@@H](CCC(=O)NCCCC[C@H](NC(=O)[C@H](CCC(N)=O)NC(=O)[C@H](C)NC(=O)[C@H](CC(C)C)NC(=O)[C@H](CC(C)C)NC(=O)[C@H](Cc1c[nH]c2ccccc12)NC(=O)[C@H](CC(N)=O)NC(=O)[C@@H](NC(=O)[C@H](Cc1ccccc1)NC(=O)[C@H](CC(=O)O)NC(=O)[C@H](CCC(N)=O)NC(=O)[C@H](CCC(N)=O)NC(=O)[C@H](Cc1c[nH]cn1)NC(=O)[C@@H](NC(=O)[C@H](CCCCN)NC(=O)[C@H](CC(=O)O)NC(=O)[C@H](CC(C)C)NC(=O)[C@H](CCC(=O)O)NC(=O)[C@@H](NC(=O)[C@H](CO)NC(=O)[C@H](Cc1ccc(O)cc1)NC(=O)[C@H](CC(=O)O)NC(=O)[C@H](CO)NC(=O)[C@@H](NC(=O)[C@H](Cc1ccccc1)NC(=O)[C@@H](NC(=O)CNC(=O)[C@H](CCC(=O)O)NC(=O)C(C)(C)NC(=O)[C@@H](N)Cc1ccc(O)cc1)[C@@H](C)O)[C@@H](C)CC)[C@@H](C)CC)[C@@H](C)CC)C(C)C)C(N)=O)C(=O)O) [Compound 6] | 0.014 | 0.032 | – |
| YAEGTFISDYSIELDKKAQRAFIEWLLAQGPSSGAPPPS (Aib at 2; Lys 17 side chain acylated: K((19-Carboxy-nonadecanoyl)-[(Piperazine-1-yl)-acetyl]-Peg3-Peg3); C-terminal amide (-NH2)) [Compound 19] | 0.005 | 0.006 | > 3 |
| H-Y[Aib]EGTFISDYSIELDKIHQQDFVNWLLAQGPSSGAPPPSK([Peg3-Peg3-γGlu-C20 diacid])-NH2 [Compound 4] | 0.014 | 0.013 | – |
| H-Y[Aib]EGTFISDYSIELDKIHQQDFVNWLLAQKGK([γGlu-Palmitoyl])-NH2 (SMILES CCCCCCCCCCCCCCCC(=O)N[C@@H](CCC(=O)NCCCC[C@H](NC(=O)CNC(=O)[C@H](CCCCN)NC(=O)[C@H](CCC(N)=O)NC(=O)[C@H](C)NC(=O)[C@H](CC(C)C)NC(=O)[C@H](CC(C)C)NC(=O)[C@H](Cc1c[nH]c2ccccc12)NC(=O)[C@H](CC(N)=O)NC(=O)[C@@H](NC(=O)[C@H](Cc1ccccc1)NC(=O)[C@H](CC(=O)O)NC(=O)[C@H](CCC(N)=O)NC(=O)[C@H](CCC(N)=O)NC(=O)[C@H](Cc1c[nH]cn1)NC(=O)[C@@H](NC(=O)[C@H](CCCCN)NC(=O)[C@H](CC(=O)O)NC(=O)[C@H](CC(C)C)NC(=O)[C@H](CCC(=O)O)NC(=O)[C@@H](NC(=O)[C@H](CO)NC(=O)[C@H](Cc1ccc(O)cc1)NC(=O)[C@H](CC(=O)O)NC(=O)[C@H](CO)NC(=O)[C@@H](NC(=O)[C@H](Cc1ccccc1)NC(=O)[C@@H](NC(=O)CNC(=O)[C@H](CCC(=O)O)NC(=O)C(C)(C)NC(=O)[C@@H](N)Cc1ccc(O)cc1)[C@@H](C)O)[C@@H](C)CC)[C@@H](C)CC)[C@@H](C)CC)C(C)C)C(N)=O)C(=O)O) [Compound 7] | 0.032 | 0.018 | – |
| H-Y[Aib]EGTFISDYSIELDKK([Peg3-Peg3-γGlu-C20 diacid])HQQDFVNWLLAQGPSSGAPPPS-NH2 [Compound 9] | 0.009 | 0.008 | > 3 |

From US10253078 (ZEALAND PHARMA A S, dated 2019)
